Source: US20260116951A1 (DUCENTIS BIOTHERAPEUTICS, published 2026)

Assays:
[1] = biological target: T1, Recombinant Human CD200R, His-tagged (Creative Biomart CD200R1-320H) (human, UniProt Q8TD46 27-266); assay: SPR, CD200R flowed over immobilized CD200-Fc, 25 C, 1:1 fit
T1 construct: Bought; also called human CD200 receptor; not shown: His tag
T1 sequence (looked up): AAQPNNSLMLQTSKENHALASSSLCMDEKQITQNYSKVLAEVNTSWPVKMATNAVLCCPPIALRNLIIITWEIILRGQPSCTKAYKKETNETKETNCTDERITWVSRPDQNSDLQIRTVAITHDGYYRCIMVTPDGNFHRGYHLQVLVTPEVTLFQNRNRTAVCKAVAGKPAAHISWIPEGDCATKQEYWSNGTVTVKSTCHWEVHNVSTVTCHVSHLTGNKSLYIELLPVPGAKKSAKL
Experimental: (§1) For human CD200 constructs: anti-human Fc (GE Healthcare) was covalently immobilized on a BIAcore CM5 sensor chip (Cytiva, BR100530) by amine coupling using a Cytiva kit (BR100839) following the manufacturer's instructions, targeting immobilization of 8,000-11,000 RU. CD200-Fc proteins were diluted to 0.5 μg/mL to 4 μg/mL in running Buffer (1×HBS-EP+pH7.4 (Cytiva BR100669), HEPES Buffered Saline pH 7.4 containing 3 mM EDTA and 0.05% v/v Surfactant P20) and flowed for 25 to 100 seconds at 10 μL/min over the immobilized Anti-Human IgG Fc, with a stabilization time of 60 seconds. Between 35 and 250 RUs of CD200-Fc were captured, with higher RUs used for cynomolgus CD200R binding experiments. […] Analysis temperature was 25° C. This was followed by regeneration of the surface with 30-90 second pulse of 3M MgCl₂ flowed at […] flow rate followed by stabilization of the surface with 60 second flow of running buffer.
(§2) Curves obtained were fitted to 1:1 Langmuir binding model by setting Rmax and RI as local parameters. Rate equations using standard parameters (e.g. ligand concentration, time) were used for iterative curve fitting. […] Means of 2 experiments carried out on the same day are shown with standard deviation. Residue numbering for CD200 proteins refers to the pre-protein, containing a signal peptide which is cleaved during insertion into the endoplasmic reticulum.

[2] = biological target: T2, Recombinant Cyno CD200R, His-tagged (Creative Biomart CD200R1-3483C) (cynomolgus monkey); assay: SPR, cyno CD200R1 flowed over immobilized CD200-Fc, 25 C, 1:1 fit
T2 construct: Bought; also called cynomolgus CD200R1; cynomolgus CD200R
Experimental: as §1, §2

[3] = biological target: T1, Recombinant Human CD200R, His-tagged …; assay: SPR (BIAcore T200), CD200-Fc captured on anti-human Fc, CD200R flowed, 25 C, 1:1 fit
Experimental: (§3) The experiments were performed on a GE Healthcare BIAcore T200. Human, cynomolgus and mouse CD200R proteins were purchased from Creative Biomart (CD200R1-320H, CD200R1-3483C, CD200R1-3280M). All measurements were performed in duplicate.
For human CD200 constructs: anti-human Fc (GE Healthcare) was covalently immobilized on a BIAcore CM5 sensor chip (Cytiva, BR100530) by amine coupling using a Cytiva kit (BR100839) following the manufacturer's instructions, targeting immobilization of 8,000-11,000 RU. CD200-Fc proteins were diluted to 0.5 μg/mL to 4 μg/mL in running Buffer (1×HBS-EP+pH7.4 (Cytiva BR100669), HEPES Buffered Saline pH 7.4 containing 3 mM EDTA and 0.05% v/v Surfactant P20) and flowed for 25 to 100 seconds at 10 μL/min over the immobilized Anti-Human IgG Fc, with a stabilization time of 60 seconds. […]
For mouse CD200 constructs, muCD200R-Fc (Creative Biomart CD200R1-458M) diluted to 1 μg/mL in running buffer was flowed over the immobilized Anti-Human IgG Fc, with CD200 monomers serially diluted and flowed over captured CD200R. […] Data analysis: experimental sensorgrams were analyzed in BIAevaluation software (GE Healthcare). […] Closeness of fit was determined by algorithms provided by the manufacturer in the BIAevaluation software, and data accepted if the Chi² value was less than 10% of Rₘₐₓ, and the U value was less than or equal to 15.

[4] = biological target: T1, Recombinant Human CD200R, His-tagged …; assay: SPR (BIAcore T200), CD200-Fc captured on anti-human Fc, CD200R flowed, 25 C, 1:1 fit, mean of two runs
Experimental: as §3, §1
(§4) For mouse CD200 constructs, muCD200R-Fc (Creative Biomart CD200R1-458M) diluted to 1 μg/mL in running buffer was flowed over the immobilized Anti-Human IgG Fc, with CD200 monomers serially diluted and flowed over captured CD200R. Other details were as above. Data analysis: experimental sensorgrams were analyzed in BIAevaluation software (GE Healthcare). The curves obtained were fitted to 1:1 Langmuir binding model by setting Rmax and RI as local parameters. Rate equations using standard parameters (e.g. ligand concentration, time) were used for iterative curve fitting. Closeness of fit was determined by algorithms provided by the manufacturer in the BIAevaluation software, and data accepted if the Chi² value was less than 10% of Rₘₐₓ, and the U value was less than or equal to 15.

[5] = biological target: T2, Recombinant Cyno CD200R, His-tagged …; assay: SPR (BIAcore T200), CD200-Fc captured on anti-human Fc, cyno CD200R flowed, 25 C, 1:1 fit, mean of two runs
Experimental: as §3, §1, §4

[6] = biological target: T2, Recombinant Cyno CD200R, His-tagged …; assay: SPR, cyno CD200R1 flowed over immobilized CD200-Fc, 25 C, 1:1 fit, mean of 2 experiments with standard deviation
Experimental: as §1, §2

[7] = biological target: T1, Recombinant Human CD200R, His-tagged …; assay: SPR (BIAcore), DS-118 captured (0.5 ug/mL), HuCD200R1 flowed at 100 nM to 6.25 nM, 25 C, 1:1 Binding model, run 1
Experimental: as §1, §4

[8] = biological target: T1, Recombinant Human CD200R, His-tagged …; assay: SPR (BIAcore), DS-118 captured (0.5 ug/mL), HuCD200R1 flowed at 100 nM to 6.25 nM, 25 C, 1:1 Binding model, run 2
Experimental: as §1, §4

[9] = biological target: T2, Recombinant Cyno CD200R, His-tagged …; assay: SPR (BIAcore), DS-118 captured (0.5 ug/mL), CynoCD200R1 flowed at 1000 nM to 62.5 nM, 25 C, 1:1 Binding model, run 2
Experimental: as §1, §4

T1/2 [2]: 0.303 min
Kd [5]: 206 nM
koff [5]: 0.038 s⁻¹
kon [5]: 186000 M⁻¹ s⁻¹
Kd [6]: 206 nM
Kd [9]: 204 nM
koff [9]: 0.0596 s⁻¹
kon [9]: 292000 M⁻¹ s⁻¹
B1: DS-118 (mutated human CD200-Fc fusion protein, K130Y, I131Y, IgG4 S228P Fc) (Fc fusion)
chain: QVQVVTQDEREQLYTPASLKCSLQNAQEALIVTWQKKKAVSPENMVTFSENHGVVIQPAYKDKINITQLGLQNSTITFWNITLEDEGCYMCLFNTFGFGYYSGTACLTVYVQPIVSLHYKFSEDHLNITCSATARPAPMVFWKVPRSGIENSTVTLSHPNGTTSVTSILHIKDPKNQVGKEVICQVLHLGTVTDFKQTVNKGPPCPPCPAPEFLGGPSVFLFPPKPKDTLMISRTPEVTCVVVDVSQEDPEVQFNWYVDGVEVHNAKTKPREEQFNSTYRVVSVLTVLHQDWLNGKEYKCKVSNKGLPSSIEKTISKAKGQPREPQVYTLPPSQEEMTKNQVSLTCLVKGFYPSDIAVEWESNGQPENNYKTTPPVLDSDGSFFLYSRLTVDKSRWQEGNVFSCSVMHEALHNHYTQKSLSLSLGK
notes: also called mutated CD200-Fc; mutant CD200-Fc
T1/2 [1]: 37.9 min
t½ [3]: 37.9 min
Kd [4]: 1.3 nM
koff [4]: 0.000304 s⁻¹
kon [4]: 231000 M⁻¹ s⁻¹
Kd [7]: 1.21 nM
koff [7]: 0.000278 s⁻¹
kon [7]: 230000 M⁻¹ s⁻¹
Kd [8]: 1.42 nM
koff [8]: 0.000329 s⁻¹
kon [8]: 232000 M⁻¹ s⁻¹
